This note sets out measurements from patent US20250155401, “RAPID, SINGLE-STEP AND REAGENTLESS ELECTROCHEMICAL BIOSENSING METHODS, COMPOSITIONS AND DEVICES FOR NANOMOLAR DETECTION OF C-REACTIVE PROTEIN” (Advanced Biomedical Instrumentation Centre Limited, published 2025).

Data set [1] concerns the target bovine serum albumin (BSA) (Bos taurus, UniProt P02769 P02769:25-607). Description: square wave voltammetry; no observable deviation in response, PBS. As to conditions: tags: Sigma-Aldrich, lyophilized powder >96%; label: 3' methylene blue. As to the method:
(§1) The initial response spike is caused by injection of the analyte. Subsequent stabilisation of the response signal via this testing method occurs over 2-3 minutes. Crucially, significant concentrations of bovine serum albumin, and human serum albumin produce no observable deviation in response, confirming excellent selectivity against serum endogenous proteins that are well known to produce false positives in other sensors formats.

The target in data set [2] is human serum albumin (HSA) (Homo sapiens, UniProt P02768 P02768:25-609). The description is as above. As to conditions: label: 3' methylene blue. As to the method: as §1
Chain of human serum albumin (HSA) (P02768 25-609, one chain of several): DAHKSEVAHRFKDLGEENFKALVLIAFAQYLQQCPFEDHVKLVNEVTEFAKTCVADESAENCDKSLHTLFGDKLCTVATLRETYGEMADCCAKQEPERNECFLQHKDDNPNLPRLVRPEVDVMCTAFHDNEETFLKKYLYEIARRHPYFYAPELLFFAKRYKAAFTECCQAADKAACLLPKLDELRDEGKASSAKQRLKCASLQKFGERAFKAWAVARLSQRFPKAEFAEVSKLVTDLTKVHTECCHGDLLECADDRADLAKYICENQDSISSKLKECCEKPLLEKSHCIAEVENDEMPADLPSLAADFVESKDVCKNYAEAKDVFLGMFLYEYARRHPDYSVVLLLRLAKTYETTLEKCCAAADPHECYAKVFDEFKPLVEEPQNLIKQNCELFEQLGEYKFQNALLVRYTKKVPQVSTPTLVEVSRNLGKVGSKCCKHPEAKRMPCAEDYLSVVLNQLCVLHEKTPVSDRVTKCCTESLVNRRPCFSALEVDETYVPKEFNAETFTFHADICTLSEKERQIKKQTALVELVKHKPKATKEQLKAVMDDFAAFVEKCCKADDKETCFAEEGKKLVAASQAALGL
For data set [3], the target named is T1, C-reactive protein (CRP) (UniProt P02741 P02741:19-224).
T1 sequence: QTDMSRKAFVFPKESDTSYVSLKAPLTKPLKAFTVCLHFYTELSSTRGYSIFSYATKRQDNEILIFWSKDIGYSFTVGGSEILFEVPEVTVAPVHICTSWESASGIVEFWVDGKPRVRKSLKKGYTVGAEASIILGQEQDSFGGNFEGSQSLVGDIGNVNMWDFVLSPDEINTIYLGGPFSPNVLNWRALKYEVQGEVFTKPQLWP
Description: square wave voltammetry on gold SPE, Hill-Langmuir fit of 48-hour sensor re-use data; BSA-doped PBS with Mg, room temperature not stated. As to conditions: tags: abcam ab167710, HEK 293 expressed, >95% purity; chain copies: 5 (pentamer, stated); label: 3' methylene blue. As to the method: Refer to FIGS. 4A-4D for the following descriptions. To assess reusability of the prepared aptasensors, dose-response assays are conducted in BSA doped PBS buffer 48 hours after initial testing. Magnesium is used to supplement PBS buffer to more closely match the ion content found in serum with observations showing little difference between results obtained from the initial screening assay. […] Despite these uncertainties, linear range observed for used sensors is broadly maintained. For used sensors, the LOD calculated from linear regression is shown to be approximately 363 pM which matched well with an LOD value of approx. 374 pM derived from non-linear regression fits to the Hill-Langmuir (dose response) function described in section 2.6. Non-Linear fitting is achieved with good fitting (adjusted R₂=0.99). […] Here, concentration is provided in molar units, calculated using the CRP pentameric isoform weight of 120 kDa.

The target in data set [4] is T1, C-reactive protein (CRP). Description: square wave voltammetry; no response up to 500 nM CRP in PBS with 1 mM BSA. The settings on record: tags: abcam ab167710, HEK 293 expressed, >95% purity; chain copies: 5 (pentamer, stated); label: 3' methylene blue. The protocol: Refer to FIGS. 3A-3E for the following descriptions. To assess specificity of the CRP-targeting aptamer, initial assays are conducted in PBS (1×) buffer supplemented with bovine serum albumin ‘BSA’. Albumin is fixed at a concentration of 1 mM to reflect slightly higher concentrations than those found in serum. Control sensors are prepared in the same fashion as with test sensors using an excised version of the CRP-targeting aptamer sequence without flanking primer regions (FIG. 3D). […] A Limit of detection ‘LOD’ of 105.4 pM is calculated using linear regression, using n=3 independently prepared sensors. […] Here, CRP concentration is reported in molar units and calculate values based on the pentameric isoform weight of 115-120 kDa, as is reported by the commercial supplier and elsewhere.

Chain of bovine serum albumin (BSA) (P02769 25-607, one chain of several): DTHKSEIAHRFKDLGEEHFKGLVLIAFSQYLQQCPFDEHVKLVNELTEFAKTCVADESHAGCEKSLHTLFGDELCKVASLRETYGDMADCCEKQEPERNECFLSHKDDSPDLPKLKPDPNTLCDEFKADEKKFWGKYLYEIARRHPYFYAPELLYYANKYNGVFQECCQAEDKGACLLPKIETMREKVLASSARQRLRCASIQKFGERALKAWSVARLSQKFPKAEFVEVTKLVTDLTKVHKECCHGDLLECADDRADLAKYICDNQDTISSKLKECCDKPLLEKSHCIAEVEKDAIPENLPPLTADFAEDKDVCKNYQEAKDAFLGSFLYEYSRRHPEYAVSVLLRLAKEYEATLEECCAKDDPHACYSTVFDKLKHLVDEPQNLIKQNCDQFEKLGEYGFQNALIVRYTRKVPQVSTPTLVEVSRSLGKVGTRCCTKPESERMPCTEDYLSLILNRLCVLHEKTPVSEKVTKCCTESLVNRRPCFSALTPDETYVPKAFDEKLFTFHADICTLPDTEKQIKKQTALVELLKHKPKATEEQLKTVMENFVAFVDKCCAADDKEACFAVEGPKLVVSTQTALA

B1: CRP-targeting aptamer (ssDNA)
DNA: GGCAGGAAGACAAACACGATGGGGGGGTATGATTTGATGTGGTTGTTGCATGATCGTGGTCTGTGGTGCTGT
modifications: 5' thiol modifier (C6-S-S), 3' methylene blue via C7 spacer
For B1, the binding result in data set [1] and in data set [2] was “no binding” in each case. For the same molecule, the dissociation constant Kd – broadly, the constant that tells how readily two partners part at equilibrium – in the data set with C-reactive protein (CRP) [3] came out at 55.4 nM.

B2: CRP-targeting aptamer without flanking primer regions (control) (ssDNA)
DNA: CGATGGGGGGGTATGATTTGATGTGGTTGTTGCATGATCG
modifications: 5' thiol modifier (C6-S-S), 3' methylene blue via C7 spacer
As for B2, the binding result in the data set with C-reactive protein (CRP) [4] is listed as “no binding”.
